PMC6069116

Molecular target: HrpG/HrpV complex from Erwinia amylovora, separately produced (Erwinia amylovora)
Experiment: SEC-MALS

HrpJ from Erwinia amylovora, separately produced and purified (natural protein)
stoichiometry N (HrpG:HrpV:HrpJ): 1
